In patent US20180163176A1 (NANTKWEST, published 2018):

Molecular target: CD33 (UniProt P20138 18-364, limits assumed)
Test: cell-based or functional assay

CD33, sequence (P20138 18-364 limits assumed): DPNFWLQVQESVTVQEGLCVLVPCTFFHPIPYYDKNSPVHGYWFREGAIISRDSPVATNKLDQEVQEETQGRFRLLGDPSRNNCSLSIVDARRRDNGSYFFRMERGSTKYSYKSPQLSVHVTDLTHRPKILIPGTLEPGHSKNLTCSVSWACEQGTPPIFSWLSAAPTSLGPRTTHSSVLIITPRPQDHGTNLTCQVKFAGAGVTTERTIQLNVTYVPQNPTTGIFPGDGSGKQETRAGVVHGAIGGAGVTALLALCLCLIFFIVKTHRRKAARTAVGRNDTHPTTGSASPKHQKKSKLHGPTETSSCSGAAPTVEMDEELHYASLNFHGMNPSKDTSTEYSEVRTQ

B1: CD33-CAR (other)
chain: MDWIWRILFLVGAATGAHSAQPADIQMTQSPSSLSASVGDRVTITCRASESVDNYGISFMNWFQQKPGKAPKLLIYAASNQGSGVPSRFSGSGSGTDFTLTISSLQPDDFATYYCQQSKEVPWTFGQGTKVEIKGGGGSGGGGSGGGGSQVQLVQSGAEVKKPGSSVKVSCKASGYTFTDYNMHWVRQAPGQGLEWIGYIYPYNGGTGYNQKFKSKATITADESTNTAYMELSSLRSEDTAVYYCARGRPAMDYWGQGTLVTVSSALSNSIMYFSHFVPVFLPAKPTTTPAPRPPTPAPTIASQPLSLRPEASRPAAGGAVHTRGLDPKLCYLLDGILFIYGVILTALFLRVKFSRSADAPAYQQGQNQLYNELNLGRREEYDVLDKRRGRDPEMGGKPRRKNPQEGLYNELQKDKMAEAYSEIGMKGERRRGKGHDGLYQGLSTATKDTYDALHMQALPPR
cytotoxicity against aNK resistant cell lines at 24 hours (flow cytometry assay): > 80%
